Article PMC12169662, “De Novo-Designed APC/C Inhibitors Provide a Rationale for Targeting RING-Type E3 Ubiquitin Ligases” (Journal of Medicinal Chemistry, 2025)
Bridge positions count the residues as written; N and C are the ends. Square brackets hold non-standard residues; d marks the D form. Ends that are not written are not given here. R8 = C=CCCCCCC[C@@](C)(N)C(=O)O; S5 = C=CCCC[C@](C)(N)C(=O)O

Tests used:
[1] = biological target: T1, recombinant APC/C (anaphase promoting complex/cyclosome) (UniProt Q9NYG5 1-84; Q9UJX6 1-822; Q9H1A4 1-1944; P30260 1-824); assay: cell-based or functional assay
[2] = biological target: T1, recombinant APC/C (anaphase promoting …); assay: enzyme kinetics (in vitro APC/C ubiquitination assay); 20 nM recombinant APC/C, 340 nM CDC20, UBA1, UBE2C K119R, ubiquitin; securin titrated from 50 nM to 5 μM with and without H6; initial velocity; 30 °C, 30 mM HEPES pH 7.4, 175 mM NaCl, 8 mM MgCl2; model for noncompetitive inhibition; details: both partners purified

T1 sequence (P30260 whole entry, looked up, chain 1 of 4): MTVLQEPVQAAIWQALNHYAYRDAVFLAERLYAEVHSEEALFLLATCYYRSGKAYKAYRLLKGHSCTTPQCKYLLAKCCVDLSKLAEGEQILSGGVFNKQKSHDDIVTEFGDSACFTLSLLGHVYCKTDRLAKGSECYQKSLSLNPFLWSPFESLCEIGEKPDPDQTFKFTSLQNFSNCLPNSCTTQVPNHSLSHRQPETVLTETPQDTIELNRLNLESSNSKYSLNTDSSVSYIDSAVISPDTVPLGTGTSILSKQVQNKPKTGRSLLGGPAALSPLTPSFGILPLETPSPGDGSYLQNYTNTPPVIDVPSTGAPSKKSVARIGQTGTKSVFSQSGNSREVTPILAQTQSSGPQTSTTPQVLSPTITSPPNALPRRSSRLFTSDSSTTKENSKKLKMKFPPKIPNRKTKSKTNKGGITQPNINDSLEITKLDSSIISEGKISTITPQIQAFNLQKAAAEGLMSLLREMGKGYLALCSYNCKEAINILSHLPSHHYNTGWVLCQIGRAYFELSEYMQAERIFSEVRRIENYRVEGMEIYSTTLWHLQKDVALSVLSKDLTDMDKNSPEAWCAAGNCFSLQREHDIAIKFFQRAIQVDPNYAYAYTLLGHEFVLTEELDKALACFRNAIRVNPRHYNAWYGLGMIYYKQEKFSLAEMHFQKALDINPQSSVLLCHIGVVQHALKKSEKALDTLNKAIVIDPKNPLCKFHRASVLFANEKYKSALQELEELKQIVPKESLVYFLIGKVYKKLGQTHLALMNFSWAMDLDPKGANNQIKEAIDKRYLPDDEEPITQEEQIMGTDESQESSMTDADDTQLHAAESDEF
T1 sequence (Q9H1A4 whole entry, looked up, chain 2 of 4): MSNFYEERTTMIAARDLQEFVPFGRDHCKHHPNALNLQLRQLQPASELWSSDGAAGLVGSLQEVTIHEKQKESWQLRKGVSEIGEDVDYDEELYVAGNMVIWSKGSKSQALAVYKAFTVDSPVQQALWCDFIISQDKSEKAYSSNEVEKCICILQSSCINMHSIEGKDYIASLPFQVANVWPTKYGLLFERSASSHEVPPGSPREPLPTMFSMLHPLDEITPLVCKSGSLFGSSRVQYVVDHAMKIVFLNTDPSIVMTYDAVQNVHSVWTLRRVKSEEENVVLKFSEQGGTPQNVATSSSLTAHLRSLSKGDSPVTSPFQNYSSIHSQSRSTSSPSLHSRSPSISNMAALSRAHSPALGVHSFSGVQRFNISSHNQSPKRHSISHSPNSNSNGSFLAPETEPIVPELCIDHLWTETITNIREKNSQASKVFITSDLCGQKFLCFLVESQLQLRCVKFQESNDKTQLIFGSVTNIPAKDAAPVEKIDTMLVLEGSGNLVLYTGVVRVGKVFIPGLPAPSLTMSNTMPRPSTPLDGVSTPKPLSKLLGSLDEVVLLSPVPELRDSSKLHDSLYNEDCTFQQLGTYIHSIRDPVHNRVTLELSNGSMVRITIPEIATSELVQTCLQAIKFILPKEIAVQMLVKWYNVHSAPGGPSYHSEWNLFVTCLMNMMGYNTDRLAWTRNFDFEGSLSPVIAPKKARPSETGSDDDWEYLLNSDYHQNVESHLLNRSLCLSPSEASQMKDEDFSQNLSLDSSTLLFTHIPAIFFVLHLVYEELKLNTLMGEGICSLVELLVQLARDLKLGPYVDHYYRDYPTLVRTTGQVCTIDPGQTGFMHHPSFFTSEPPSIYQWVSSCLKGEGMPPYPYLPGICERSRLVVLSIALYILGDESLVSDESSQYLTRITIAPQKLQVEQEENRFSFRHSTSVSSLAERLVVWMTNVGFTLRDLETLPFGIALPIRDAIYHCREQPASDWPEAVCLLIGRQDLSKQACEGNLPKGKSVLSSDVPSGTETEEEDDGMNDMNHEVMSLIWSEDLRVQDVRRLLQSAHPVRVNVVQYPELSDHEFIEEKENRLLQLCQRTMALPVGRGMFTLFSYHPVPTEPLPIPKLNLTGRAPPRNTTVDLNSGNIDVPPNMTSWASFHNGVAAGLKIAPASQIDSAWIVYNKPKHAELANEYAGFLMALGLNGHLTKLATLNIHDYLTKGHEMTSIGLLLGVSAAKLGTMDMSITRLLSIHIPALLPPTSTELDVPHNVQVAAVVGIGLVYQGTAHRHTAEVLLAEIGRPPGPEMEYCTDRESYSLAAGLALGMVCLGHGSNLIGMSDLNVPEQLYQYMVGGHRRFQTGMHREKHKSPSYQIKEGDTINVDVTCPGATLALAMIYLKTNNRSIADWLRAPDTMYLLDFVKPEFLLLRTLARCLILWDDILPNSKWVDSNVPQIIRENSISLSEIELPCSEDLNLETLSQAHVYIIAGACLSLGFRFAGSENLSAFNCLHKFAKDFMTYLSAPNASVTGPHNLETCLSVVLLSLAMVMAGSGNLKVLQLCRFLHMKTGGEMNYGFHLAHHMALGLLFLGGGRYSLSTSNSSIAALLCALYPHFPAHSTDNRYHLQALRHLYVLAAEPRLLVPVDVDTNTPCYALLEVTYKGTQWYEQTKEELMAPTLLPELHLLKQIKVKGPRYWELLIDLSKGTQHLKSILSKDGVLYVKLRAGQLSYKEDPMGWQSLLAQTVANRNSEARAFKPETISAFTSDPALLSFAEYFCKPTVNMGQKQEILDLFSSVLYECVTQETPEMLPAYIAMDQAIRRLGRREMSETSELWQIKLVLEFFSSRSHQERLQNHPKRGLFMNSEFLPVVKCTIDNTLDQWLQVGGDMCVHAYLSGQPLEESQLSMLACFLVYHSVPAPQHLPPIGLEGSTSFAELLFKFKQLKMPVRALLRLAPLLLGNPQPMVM
T1 sequence (Q9UJX6 whole entry, looked up, chain 3 of 4): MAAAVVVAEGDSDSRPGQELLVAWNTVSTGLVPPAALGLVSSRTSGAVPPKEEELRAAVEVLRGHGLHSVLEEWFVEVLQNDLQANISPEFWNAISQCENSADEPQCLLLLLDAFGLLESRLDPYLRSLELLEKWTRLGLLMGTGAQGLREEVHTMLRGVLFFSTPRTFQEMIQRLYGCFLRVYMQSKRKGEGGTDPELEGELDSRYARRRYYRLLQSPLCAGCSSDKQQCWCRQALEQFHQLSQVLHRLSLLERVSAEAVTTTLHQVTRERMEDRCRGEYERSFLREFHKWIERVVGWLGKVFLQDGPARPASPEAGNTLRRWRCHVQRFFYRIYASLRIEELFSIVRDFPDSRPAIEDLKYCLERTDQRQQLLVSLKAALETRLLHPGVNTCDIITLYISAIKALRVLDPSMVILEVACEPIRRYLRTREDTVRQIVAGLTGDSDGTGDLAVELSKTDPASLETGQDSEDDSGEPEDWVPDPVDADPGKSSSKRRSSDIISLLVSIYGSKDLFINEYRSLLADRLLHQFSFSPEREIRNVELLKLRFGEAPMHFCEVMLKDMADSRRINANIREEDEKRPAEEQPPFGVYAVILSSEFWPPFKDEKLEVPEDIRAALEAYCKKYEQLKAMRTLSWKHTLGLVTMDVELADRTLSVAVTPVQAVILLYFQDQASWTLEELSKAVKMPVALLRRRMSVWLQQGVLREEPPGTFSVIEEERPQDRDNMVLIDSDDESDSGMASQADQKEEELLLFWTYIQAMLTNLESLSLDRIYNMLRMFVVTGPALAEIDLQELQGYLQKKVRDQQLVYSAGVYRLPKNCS
T1 sequence (Q9NYG5 whole entry, looked up, chain 4 of 4): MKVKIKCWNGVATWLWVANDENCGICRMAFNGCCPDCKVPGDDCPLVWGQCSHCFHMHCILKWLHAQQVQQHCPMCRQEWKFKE

IC50 of in vitro APC/C ubiquitination of the substrate, H6 titrated from 0.01 to 100 μM; blocks E2 recruitment to the RING domain of APC/C [1]: 1.96 µM | Ki [2]: 5.03 ± 0.79 µM
Binder: EWW[R8]IKEIQR[S5]RRA (designed binder, staple 4-11) [H6]
